Changes are numbered by the printed parent chain. Numbers in names are those of the source. Marks after values point to notes of the source that are not given here.
B1: L178S: carboxypeptidase Y S1 mutant, substitution L178S (protein, UniProt P00729 112-532, looked up, variant L178S)
Carboxypeptidase Y: KIKDPKILGIDPNVTQYTGYLDVEDEDKHFFFWTFESRNDPAKDPVILWLNGGPGCSSLTGLFFELGPSSIGPDLKPIGNPYSWNSNATVIFLDQPVNVGFSYSGSSGVSNTVAAGKDVYNFLELFFDQFPEYVNKGQDFHIAGESYAGHYIPVFASEILSHKDRNFNLTSVLIGNGSTDPLTQYNYYEPMACGEGGEPSVLPSEECSAMEDSLERCLGLIESCYDSQSVWSCVPATIYCNNAQLAPYQRTGRNVYDIRKDCEGGNLCYPTLQDIDDYLNQDYVKEAVGAEVDHYESCNFDINRNFLFAGDWMKPYHTAVTDLLNQDLPILVYAGDKDFICNWLGNKAWTDVLPWKYDEEFASQKVRNWTASITDEVAGEVKSYKHFTYLRVFNGGHMVPFDVPENALSMVNEWIHGGFSL
B2: Wild type: wild type (native) carboxypeptidase Y (protein, UniProt P00729 112-532, looked up)
Carboxypeptidase Y: B1 Carboxypeptidase Y with S178L
B3: W312D: carboxypeptidase Y S1 mutant, substitution W312D (protein, UniProt P00729 112-532, looked up, variant W312D)
Carboxypeptidase Y: B1 Carboxypeptidase Y with S178L, W312D

Columns and labels:
[1] = Transpeptidation of Bz-G-A-R-A-R-A-OH (arginine at P1) with H-Leu-NH2, Table 1; type: biochemical; conditions: [N] 375 mM H-Leu-NH2; 2mM substrate; pH 7.5; [E] 0.1 mg/mL
Protocol: The mutant carboxypeptidase enzvmes used in these studies were produced by site-directed mutagenesis, essentially following the procedures described in published PCT Patent Application No. WO 95/20039. In general, oligonucleotides synthesized to encode the amino acid substitution were used to produce the mutant enzymes.
(§1) Transamidation reactions were carried out generally as described in PCT Application WO 95/20039. In general, the method included dissolving the nucleophile (H-Leu-NH2, unless otherwise indicated) in 50 mM HEPES, 5 mM EDTA and adjusting the pH to 7.5, 5 μl of peptide substrate (8 mM Bz-G-A-R-A-R-A-OH, unless otherwise indicated, in methanol) was added to 190 μl nucleophile solution followed by 5 μl enzyme, […]
(§2) During the reaction, 20 μl aliquots were removed from the reaction mixture and added to 50 μl 1% trifluoroacetic acid to quench the reaction. The reactant composition was determined by HPLC using a Waters HPLC equipped with a C-18 Waters Novapac 4μ reverse phase column and various gradients of acetonitrile in 0.1% trifluoroacetic acid. The separation was monitored at 254 nm allowing the direct quantification of the products from the integrated peak areas. The composition of the reaction mixture was determined at least twvice during the reaction, the first when 20-50% (preferably 35%) of the substrate had been consumed in the reaction and the second time when 50-90% (preferably 80%) of the peptide substrate had been consumed.
The reaction products were collected and identified by amino acid analysis after acid hydrolysis using a Pharmacia Alpha Plus analyzer. Further identification was obtained by co-chromatography of authentic standard compounds.
(§3) The fraction of aminolysis (fa) was expressed as the ratio between the formed aminolysis product and the sum of all products formed. Unconsumed substrate was disregarded in the calculations.

[2] = Transpeptidation of Bz-G-A-R-A-R-X-OH at pH 7.5 at 50% substrate consumption, Table 4; type: biochemical; set-up: key to fa: fraction: aminolysis product / sum of all products formed; conditions: for Pmax (peak product yield) / fa: 375 mM H-Leu-NH2
How it was run: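 Transamidation was performed by dissolving the H-Leu-NH2 nucleophile in 50 mM HEPES with 5 mM EDTA at pH 7.5, then adding the Bz-G-A-R-A-R-X-OH peptide substrate in methanol followed by enzyme. Aliquots were quenched in 1% trifluoroacetic acid and analysed by C-18 reverse-phase HPLC at 254 nm. The fraction of aminolysis was the aminolysis product divided by all products formed.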

[3] = Transpeptidation of Bz-G-A-R-A-R-X-OH at pH 6.5 at 50% substrate consumption, Table 5; type: biochemical; set-up: key to fa: fa = aminolysis product / sum of all products formed; conditions: for Pmax (peak product yield) / fa: 750 mM H-Leu-NH2; for fa / t: 50% substrate consumption; for t: 750 mM H-Leu-NH2, 2 mM substrate, [E] 0.1 mg/mL
Protocol: Transamidation reactions were carried out generally as described in PCT Application WO 95/20039. In general, the method included dissolving the nucleophile (H-Leu-NH2, unless otherwise indicated) in 50 mM HEPES, […], 5 μl of peptide substrate (8 mM Bz-G-A-R-A-R-A-OH, unless otherwise indicated, in methanol) was added to 190 μl nucleophile solution followed by 5 μl enzyme, resulting in a substrate concentration of 0.2 mM.
as §2
The fraction of aminolysis (fa) was expressed as the ratio between the formed aminolysis product and the sum of all products formed. Unconsumed substrate was disregarded in the calculations. […]

[4] = Transamidation of FA-Arg-Ala-OH, Table 6; type: biochemical; conditions: [S] = 2 mM; H-Leu-NH2 375 mM; pH 7.5; [E] 0.1 mg/mL
[5] = Transamidation of Bz-G-A-R-A-R-A-OH, Table 6; type: biochemical; conditions: [S] = 2 mM; H-Leu-NH2 375 mM; pH 7.5; [E] 0.1 mg/mL
Protocol: as §1, §2, §3
Site specific mutagenesis was performed as described for Example 1 to generate the specific mutants described below. Transamidation reactions were performed as described in the previous examples.

[6] = Transamidation of Bz-G-A-R-A-R-A-OH, Table 6; type: biochemical; conditions: [S] = 2 mM; H-Leu-NH2 375 mM; pH 7.5; [E] 0.1 mg/mL; remark: listed apart in the source
[7] = Transpeptidation of FA-Ala-Xaa-OH with H-Gly-NH2, Table 2; type: biochemical; conditions: 1.9 M H-Gly-NH2, pH 7.5, room temperature
How it was run: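 Enzyme reacted with 0.2 mM peptide substrate and nucleophile in 50 mM HEPES, 5 mM EDTA, pH 7.5; aliquots quenched in 1% TFA. Products quantified by reverse-phase HPLC at 254 nm at two conversion points (20-50% and 50-90% substrate consumed). Fraction of aminolysis = aminolysis product over all products, ignoring unconsumed substrate.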

[8] = ratio of hydrolysis rates, background statement; cited from earlier work
[9] = Transpeptidation of FA-Ala-OBzl with H-Leu-NH2, Table 3; type: biochemical; conditions: FA-Ala-OBzl 0.2 mM; H-Leu-NH2; pH 7.5
How it was run: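 Site-directed mutant enzymes were reacted with H-Leu-NH2 in 50 mM HEPES, 5 mM EDTA, pH 7.5, with acyl-donor substrate at 0.2 mM final. Products were quantified by C-18 RP-HPLC at 254 nm at about 35% and 80% substrate consumption. fa is aminolysis product over all products; famax is fa at nucleophile saturation, and KN(app) is the nucleophile concentration giving famax/2.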

[10] = leaving group A, 50% substrate consumption
[11] = leaving group A, 50% substrate consumption, 375 mM H-Leu-NH2, 2 mM substrate, [E] 0.1 mg/mL
[12] = leaving group I, 50% substrate consumption
[13] = leaving group L, 50% substrate consumption
[14] = leaving group M, 50% substrate consumption
[15] = leaving group V, 50% substrate consumption

Molecule | fa (fraction of aminolysis) [1] | Pmax (peak product yield) ([2]; leaving group A) | fa [2, 10] | Pmax (peak product yield) ([2]; leaving group I) | fa [2, 12] | Pmax (peak product yield) ([2]; leaving group L) | fa [2, 13] | Pmax (peak product yield) ([2]; leaving group M) | fa [2, 14] | Pmax (peak product yield) ([2]; leaving group V) | fa [2, 15] | Pmax [4] | fa [4] | Pmax [5] | fa [6] | also measured
B1 | 0.72 | 0.63 | 0.73 | 0 | 0 | 0.01 | 0.01 | 0 | 0 | 0 | 0 | 0.76 | 0.89 | 0.61 | 0.77 | t [2, 11]: 14 min; t ([2]; leaving group I, 50% substrate consumption, 375 mM H-Leu-NH2, 2 mM substrate, [E] 0.1 mg/mL): 26 min; t ([2]; leaving group L, 50% substrate consumption, 375 mM H-Leu-NH2, 2 mM substrate, [E] 0.1 mg/mL): 2.1 min; t ([2]; leaving group M, 50% substrate consumption, 375 mM H-Leu-NH2, 2 mM substrate, [E] 0.1 mg/mL): 28 min; Pmax (peak product yield) ([2]; leaving group S): 0.38; fa ([2]; leaving group S, 50% substrate consumption): 0.65; t ([2]; leaving group S, 50% substrate consumption, 375 mM H-Leu-NH2, 2 mM substrate, [E] 0.1 mg/mL): 790 min; t ([2]; leaving group V, 50% substrate consumption, 375 mM H-Leu-NH2, 2 mM substrate, [E] 0.1 mg/mL): 40 min; Pmax (peak product yield) ([3]; leaving group A): 0.74; fa ([3]; leaving group A): 0.79; t ([3]; leaving group A): 34 min; Pmax (peak product yield) ([3]; leaving group L): 0.03; fa ([3]; leaving group L): 0.03; t ([3]; leaving group L): 17 min; Pmax (peak product yield) ([3]; leaving group S): 0.63; fa ([3]; leaving group S): 0.34; t ([3]; leaving group S): 108 min
B2 | 0.05 | 0 | <0.05 | 0 | <0.05 | 0 | <0.05 | 0 | <0.05 | 0 | <0.05 | – | – | – | – | Fraction of aminolysis (fa), P1' Ala ([7]; FA-Ala-Ala-OH 0.2 mM): 0.90; Fraction of aminolysis (fa), P1' Leu ([7]; FA-Ala-Leu-OH 0.2 mM): 0.20; Fraction of aminolysis (fa), P1' Met ([7]; FA-Ala-Met-OH 0.2 mM): 0.18; Fraction of aminolysis (fa), P1' Phe ([7]; FA-Ala-Phe-OH 0.2 mM): 0.04; Fraction of aminolysis (fa), P1' Val ([7]; FA-Ala-Val-OH 0.2 mM): 0.16; FA-Arg-Ala-OH hydrolyzed more slowly than FA-Leu-Ala-OH [8]: about 500 times; t(min) [2, 11]: ca. 110000 min; fa [9]: 0.95^a
B3 | 0.15 | – | – | – | – | – | – | – | – | – | – | 0.67 | 0.77 | 0.08 | 0.16 | –

Source: patent US20010010923A1, “MODIFIED CARBOXYPEPTIDASE” (priority 1997, published 2001)
